Source: US20220098319A1 (SHANGHAI PHARMAEXPLORER, published 2022)
Positions count from the first letter of the chain named.

T1: cynomolgus monkey CD73 (on transfected CHOK1 cells) (cynomolgus monkey, UniProt A0A2K5V5U7 27-549)
T1 construct: whole, on cells; also called CHOK1-cCD73; CHOK1-CCD73
T1 sequence: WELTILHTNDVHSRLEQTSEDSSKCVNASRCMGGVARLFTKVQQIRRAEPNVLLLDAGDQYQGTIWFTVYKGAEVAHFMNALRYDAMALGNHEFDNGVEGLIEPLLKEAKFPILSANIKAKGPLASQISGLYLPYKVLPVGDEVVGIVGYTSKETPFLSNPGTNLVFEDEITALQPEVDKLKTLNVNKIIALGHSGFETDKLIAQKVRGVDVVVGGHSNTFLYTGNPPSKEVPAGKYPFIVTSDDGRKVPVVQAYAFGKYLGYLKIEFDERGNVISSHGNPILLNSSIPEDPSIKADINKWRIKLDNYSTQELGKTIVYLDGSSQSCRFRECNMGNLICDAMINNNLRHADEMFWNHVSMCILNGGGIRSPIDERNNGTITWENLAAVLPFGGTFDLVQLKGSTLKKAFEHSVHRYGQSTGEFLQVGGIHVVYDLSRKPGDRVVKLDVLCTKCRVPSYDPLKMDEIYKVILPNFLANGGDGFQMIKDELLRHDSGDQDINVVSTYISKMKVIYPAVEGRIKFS

T2: human CD73 (full length, on transfected CHOK1 cells) (human, UniProt P21589 27-549)
T2 construct: whole, on cells; also called CHOK1-hCD73; hCD73
T2 sequence (looked up): T1 sequence with T199M, A350T, I466V

T3: murine CD73 (on transfected CHOK1 cells) (mouse, UniProt Q61503 29-551)
T3 construct: whole, on cells; also called CHOK1-mCD73; mCD73
T3 sequence (looked up): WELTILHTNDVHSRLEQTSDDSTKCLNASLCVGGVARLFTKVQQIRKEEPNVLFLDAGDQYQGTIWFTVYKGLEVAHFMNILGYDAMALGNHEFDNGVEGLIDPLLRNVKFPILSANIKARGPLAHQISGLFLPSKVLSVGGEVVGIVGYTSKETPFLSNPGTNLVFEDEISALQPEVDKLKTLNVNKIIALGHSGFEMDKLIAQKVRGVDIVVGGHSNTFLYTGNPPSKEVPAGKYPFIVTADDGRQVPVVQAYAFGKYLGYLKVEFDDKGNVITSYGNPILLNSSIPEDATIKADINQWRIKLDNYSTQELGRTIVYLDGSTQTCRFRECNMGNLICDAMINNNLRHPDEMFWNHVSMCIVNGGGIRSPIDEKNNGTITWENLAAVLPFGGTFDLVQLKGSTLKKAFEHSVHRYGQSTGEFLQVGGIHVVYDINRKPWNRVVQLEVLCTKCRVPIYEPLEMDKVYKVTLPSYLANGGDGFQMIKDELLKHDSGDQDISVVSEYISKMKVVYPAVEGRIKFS

B1: mAb044 (clone 80H7D6), murine anti-CD73 antibody (antibody, V domains shown)
VH: EVKLVESGGGLVQPGGSLRLSCAASGFTFTDYYMSWVRQPPGKALEWLGFIRNKADGSTTEYSASVKGRFTISRDNSQSILYLQMNALRPEDSATYYCTRSPIYFDNWYFDVWGTGTTVTVSS
VL: DIVMSQSPSSLAVSVGEKVTMTCKSSQSLLYSNNQKNYLAWYQQKPGQSPKLLIYWASTRESGVPDRFTGSGSGTDFTLTLSSVKAEDLAVYYCQQYYSYPFTFGSGTKLEIK
notes: Purified from hybridoma supernatant
B2: mAb036 (clone 66H6C12), murine anti-CD73 antibody (antibody, V domains shown)
VH: QVQLQQSGAEVVKPGASVKISCKASGYVFSSYWINWVKQRPGKGLEWIGKIFPGNGDTDYNGNFKGKATLTADKSSSTAYMQLSSLTSEDSAVYFCAGFADWGQGTLVTVSA
VL: DIQMTQSPSSLSASLGERVSLTCRASQDIGERLIWLQQEPDGTFKRLIYATSSLDSGVPKRFSGSSSGSDYSLTISRLESEDFVDYYCLQYASSPYTFGGGTKLEIK
notes: as for B1
B3: mAb020 (clone 24D6B4), murine anti-CD73 antibody (antibody, V domains shown)
VH: EVQLQQSGPELVKPGASVKIPCKASGYTFTDYNMDWVKQRHGKSLEWIGDINPNNGGTVYNQKFKGKATLTVDKSSNTAYMELRSLTSEDTAVYYCARISGTGYWYFDVWGTGTTVTVSS
VL: DIQMTQSPASLSVSVGETVTITCRASENIYSNLAWYQQKQGKSPQLLVYGATNLADGVPSRFSGSDSGTQYSLKINSLQSEDFGSYYCQHFWGTPWTFGGGTKLEIK
notes: as for B1
B4: mAb065 (clone 125A4E10), murine anti-CD73 antibody (antibody, V domains shown)
VH: EVQLQQSGPELVKPGASVKISCKASGYTFTDYYMNWVKQSHGKSLEWIGNINPNNGDTNYNQKFKGKATLTVDKSSSTASMELRSLTSEDSAVYYCANSGYYYFDYWGQGTTLTVSS
VL: DIVMTQSPSSLTVTAGEKVTMSCKSSQSLLNSGNQKNYLTWYQQKPGQPPKVLIYWASTRESGVPDRFTGSGSGTDFTLTISSVQAEDLAVYYCQNDYSYPPTFGGGTNLEIK
notes: as for B1
B5: mAb034 (clone 60G1C8), murine anti-CD73 antibody (antibody, V domains shown)
VH: DVQLQESGPGLVKPSQSLSLTCSVTGYSITSRYYWNWIRQFPGNKLEWMGYMTYDGTNNYNPSLTNRISITRDTSKNQFFLKLNSVTAEDTATYFCARGGWDPFDYWGQGTTLTVSS
VL: DIQMTQSPAALSASVGETVTITCRASDNIYSYLAWYQQKQGKCPQLLVKNAKTLAEGVPSRFSGSGSGTQFSLRINSLQPDDFGTYYCQHYYGTPLTFGAGTKLELK
notes: as for B1
B6: mAb042 (clone 77B9A3), murine anti-CD73 antibody (antibody, V domains shown)
VH: QVQLQQSGAGLVKPGASVKLSCKASGYTFTNYWMHWVKQRPGQGLEWIGMIHPNSGSTNNNEKFKNKATLTVDKSSNTAYMQLSSLTSEDSAVYYCARFFFGGYPHYYALDYWGQGTSVTVSS
VL: DIVMTQSQKFMSTTVGDRVSITCKASQNVGTAVAWYQQKPGQSPKLLIYSASDRYTGVPDRLTGSGSGTDFTLTISNVQSEDLADYFCQQYSSFPLFTFGSGTKLVIQ
notes: as for B1
B7: mAb038 (clone 69C9E12), murine anti-CD73 antibody (antibody, V domains shown)
VH: QVQLQQPGTELVNPGASVKLSCKASGYTFTSYWMHWVKQRPGQGLEWIGNINPSNGGTHYNEKFNNKATLTVDKSSSTAYMQLSSLTSEDSAVFYCARGDYAYDWYFTVWGTGTTVTVSS
VL: DIVLTQSPASLAVSLGQRAIISCKASQSVSFAGTGLMHWYQQKPGQQPKLLIYRVSNLEAGIPTRFSGSGSRTDFTLNIHPVEEDDAATYYCQQNREFPWTFGGGTKLEIK
notes: as for B1
B8: mAb041 (clone 71E10B3), murine anti-CD73 antibody (antibody, V domains shown)
VH: QVQLQQPGTELVKPGASVKLSCKASGYTFTSYWMHWVKQRPGQGLEWIGNINPSNGGTNYNQKFKSKATLTVDKSSNTASMQLSSLTSEDSAVYYCARGDYGYDWYLDVWGTGTTVTVSS
VL: B7 VL with T34P, G35S, V55T, I62V, R72G
notes: as for B1

target: T1, cynomolgus monkey CD73 (on transfected …); experiment: FACS on CHOK1-cCD73 cells

Binder | EC50 [nM] | MAX MFI [MFI]
B1 | 3.4 | 12300
B2 | 0.9 | 7490
B3 | 3.4 | 9960
B4 | 2.5 | 3250
B5 | 0.2 | 3210
B6 | 3.9 | 8770
B7 | 0.3 | 7400
B8 | 1.9 | 9570

target: T2, human CD73 (full length, on transfected …); experiment: FACS on CHOK1-hCD73 cells
Procedure: The titration binding curve was produced by the following method:
The CHOK1 stable cell line transfected with human CD73 was expanded to a 75-90% confluence in a T-75 cell culture flask. The medium was aspirated, washed 1-2 times with PBS, and then treated with trypsin (Tryple express: Life technology) and cells were collected. The cells were washed with PBS buffer for 1-2 times. After counted, the cells were diluted with PBS to 1-2×10⁶ cells per ml, added with 1% fetal bovine serum (FBS) blocking solution, incubated on ice for 20-30 minutes, and then washed twice with HBSS by centrifugation. The collected cells were suspended with FACS buffer (PBS+2% FBS) to 2×10⁶ cells/ml, added to a 96-well FACS reaction plate at 100 microliters per well, and centrifuged at 300 g for 5 minutes to discard the supernatant. Anti-CD73 antibody was prepared with blocking solution to an initial concentration of 10 ug/ml and serially diluted at 8 points. 100 microliter per well of that antibody sample to be tested were added and incubated at 4° C. for 1-2 hours. […] The plate was washed 2-3 times with FACS buffer by centrifugation, added with 100 μl fixative solution (4% Paraformaldehyde) per well to suspend the cells. 5-10 minutes later, it was washed 1-2 times with FACS buffer by centrifugation. The cells were suspended with 100 microliters of FACS buffer, FACS (FACSCalibur, BD) was used for detection and the results were analyzed, as shown in FIG. 1 and Table 4.

Binder | EC50 [nM] | MAX MFI [MFI]
B1 | 1.6 | 7540
B2 | 0.3 | 5290
B3 | 1.8 | 7540
B4 | 1.1 | 4650
B5 | > 10 | 5820
B6 | > 10 | 13900
B7 | 0.4 | 5230
B8 | 2.9 | 8160

target: T2, human CD73 (full length, on transfected …); experiment: cell-based or functional assay

Binder | Enzyme activity blocking assay, IC50 [nM] | Enzyme activity blocking assay, MAX % inhibition [%]
B1 | 0.5 | 53.5
B2 | 0.2 | 72.3
B3 | 0.1 | 63
B4 | 0.3 | 56.4
B5 | 0.1 | 73.7
B6 | 0.1 | 47.9
B7 | 1 | 53.3
B8 | 4 | 35.7

target: T3, murine CD73 (on transfected CHOK1 cells); experiment: FACS on CHOK1-mCD73 cells

Binder | binding result
B1 | no binding (tested: 10 ug/ml initial concentration)
B2 | no binding (tested: 10 ug/ml initial concentration)
B3 | no binding (tested: 10 ug/ml initial concentration)
B4 | no binding (tested: 10 ug/ml initial concentration)
B5 | no binding (tested: 10 ug/ml initial concentration)
B6 | no binding (tested: 10 ug/ml initial concentration)
B7 | no binding (tested: 10 ug/ml initial concentration)
B8 | no binding (tested: 10 ug/ml initial concentration)
